Read-outs that look alike come from different tables or passages of the source. Where no end group is shown, it is not given here. [ ]: non-standard residue; d: D form. Tyr(3-NO2) = N[C@@H](Cc1ccc(O)c([N+](=O)[O-])c1)C(=O)O; 2Abz = Nc1ccccc1C(=O)O
How the values were obtained:
[1] = biological target: T1, BTMD-SKI-1 (Homo sapiens, UniProt Q14703); assay: pH optimum and calcium dependence of peptide cleavage by BTMD-SKI-1; type: biochemical
T1 sequence (Q14703 187-997 limits assumed): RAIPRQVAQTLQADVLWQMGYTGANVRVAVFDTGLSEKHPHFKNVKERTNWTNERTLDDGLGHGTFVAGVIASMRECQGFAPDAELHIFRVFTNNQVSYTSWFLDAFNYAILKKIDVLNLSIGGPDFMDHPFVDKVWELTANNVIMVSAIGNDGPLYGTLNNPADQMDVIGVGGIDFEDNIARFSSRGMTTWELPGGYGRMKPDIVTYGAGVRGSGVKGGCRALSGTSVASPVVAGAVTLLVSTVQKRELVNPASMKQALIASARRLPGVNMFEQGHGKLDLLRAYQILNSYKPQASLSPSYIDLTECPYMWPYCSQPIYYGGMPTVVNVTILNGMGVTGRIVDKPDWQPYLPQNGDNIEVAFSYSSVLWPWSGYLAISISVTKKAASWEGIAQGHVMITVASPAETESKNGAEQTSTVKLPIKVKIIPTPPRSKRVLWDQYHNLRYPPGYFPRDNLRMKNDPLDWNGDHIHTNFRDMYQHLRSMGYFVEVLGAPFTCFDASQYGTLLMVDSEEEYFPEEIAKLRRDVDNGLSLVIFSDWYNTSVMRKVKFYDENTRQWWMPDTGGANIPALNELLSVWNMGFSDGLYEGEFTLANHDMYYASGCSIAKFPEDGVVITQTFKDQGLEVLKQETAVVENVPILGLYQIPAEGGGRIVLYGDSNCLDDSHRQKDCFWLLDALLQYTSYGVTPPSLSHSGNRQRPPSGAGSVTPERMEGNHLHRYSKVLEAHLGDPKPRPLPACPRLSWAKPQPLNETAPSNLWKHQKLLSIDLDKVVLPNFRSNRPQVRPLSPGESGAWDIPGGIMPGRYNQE
T1 sequence (Q14703 17-137 partner limits assumed): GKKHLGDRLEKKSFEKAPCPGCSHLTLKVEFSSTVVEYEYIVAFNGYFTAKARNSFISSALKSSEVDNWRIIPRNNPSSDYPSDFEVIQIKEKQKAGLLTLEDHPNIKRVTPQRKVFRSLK
Protocol: pH Optimum, Calcium-Dependence and Inhibitor Profile—The protocols used were essentially the same as reported previously (13). Stocks of the buffer described above were adjusted to pH 5.0–8.5 at 0.5 unit increments by addition of either acetic acid or sodium hydroxide. In order to investigate the calcium requirement of SKI-1, increasing concentrations of Ca^2+-acetate were used ranging from 0 to 10 mM.

[2] = tested on: endogenous furin-like enzyme(s); assay: Ex vivo proBDNF processing in COS-7 cells: 14 kDa BDNF; type: cell-based
[3] = biological target: T2, SKI-1 (Homo sapiens, UniProt Q14703); type: cell-based; design: The VV recombinant of full-length hSKI-1 has been described (10); expressed in transfected cells; host or cells: COS-7 cells co-infected with vv:BDNF and vv:SKI-1 (with vv:WT, vv:PIT or vv:PDX)
T2 sequence (Q14703 187-1052): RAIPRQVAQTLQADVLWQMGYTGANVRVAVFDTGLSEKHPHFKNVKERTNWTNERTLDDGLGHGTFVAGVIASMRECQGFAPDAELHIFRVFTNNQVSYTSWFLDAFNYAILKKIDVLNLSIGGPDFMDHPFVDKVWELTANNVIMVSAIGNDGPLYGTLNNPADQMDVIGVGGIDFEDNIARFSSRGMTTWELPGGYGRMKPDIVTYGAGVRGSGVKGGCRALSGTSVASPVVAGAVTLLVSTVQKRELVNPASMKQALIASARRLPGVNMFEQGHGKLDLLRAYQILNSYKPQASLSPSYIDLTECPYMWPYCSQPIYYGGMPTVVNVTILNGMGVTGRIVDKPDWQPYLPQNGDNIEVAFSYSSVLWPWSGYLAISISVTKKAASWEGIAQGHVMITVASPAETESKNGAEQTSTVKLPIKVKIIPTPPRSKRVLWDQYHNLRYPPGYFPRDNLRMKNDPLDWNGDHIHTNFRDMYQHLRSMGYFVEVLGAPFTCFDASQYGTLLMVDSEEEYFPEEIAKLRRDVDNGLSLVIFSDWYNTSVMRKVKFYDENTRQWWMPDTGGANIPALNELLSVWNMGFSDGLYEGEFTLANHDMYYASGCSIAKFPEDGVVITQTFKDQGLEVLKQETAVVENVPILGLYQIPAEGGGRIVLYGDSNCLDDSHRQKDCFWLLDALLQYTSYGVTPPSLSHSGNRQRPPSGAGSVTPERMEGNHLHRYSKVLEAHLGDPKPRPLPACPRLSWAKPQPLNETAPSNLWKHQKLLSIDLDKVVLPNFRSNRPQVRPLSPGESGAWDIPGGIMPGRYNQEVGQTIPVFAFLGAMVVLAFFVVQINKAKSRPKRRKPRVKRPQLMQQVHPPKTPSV

[4] = biological target: T3, BTMD-SKI-1 (human, UniProt Q14703 187-997); assay: Ki(app) from Dixon plots; inhibition of peptide IV hydrolysis by BTMD-SKI-1 medium (RP-HPLC), prosegment preincubated with the enzyme for 30 min
T3 construct: The construct encodes aa 1-997 plus hexa-His; It was secreted from VV-infected BSC40 or LoVo cells and used as concentrated medium or after metal chelation purification; The secreted enzyme stays associated with the ~14 kDa prosegment fragment; also called bSKI-1; BTMD-hSKI-1
T3 sequence: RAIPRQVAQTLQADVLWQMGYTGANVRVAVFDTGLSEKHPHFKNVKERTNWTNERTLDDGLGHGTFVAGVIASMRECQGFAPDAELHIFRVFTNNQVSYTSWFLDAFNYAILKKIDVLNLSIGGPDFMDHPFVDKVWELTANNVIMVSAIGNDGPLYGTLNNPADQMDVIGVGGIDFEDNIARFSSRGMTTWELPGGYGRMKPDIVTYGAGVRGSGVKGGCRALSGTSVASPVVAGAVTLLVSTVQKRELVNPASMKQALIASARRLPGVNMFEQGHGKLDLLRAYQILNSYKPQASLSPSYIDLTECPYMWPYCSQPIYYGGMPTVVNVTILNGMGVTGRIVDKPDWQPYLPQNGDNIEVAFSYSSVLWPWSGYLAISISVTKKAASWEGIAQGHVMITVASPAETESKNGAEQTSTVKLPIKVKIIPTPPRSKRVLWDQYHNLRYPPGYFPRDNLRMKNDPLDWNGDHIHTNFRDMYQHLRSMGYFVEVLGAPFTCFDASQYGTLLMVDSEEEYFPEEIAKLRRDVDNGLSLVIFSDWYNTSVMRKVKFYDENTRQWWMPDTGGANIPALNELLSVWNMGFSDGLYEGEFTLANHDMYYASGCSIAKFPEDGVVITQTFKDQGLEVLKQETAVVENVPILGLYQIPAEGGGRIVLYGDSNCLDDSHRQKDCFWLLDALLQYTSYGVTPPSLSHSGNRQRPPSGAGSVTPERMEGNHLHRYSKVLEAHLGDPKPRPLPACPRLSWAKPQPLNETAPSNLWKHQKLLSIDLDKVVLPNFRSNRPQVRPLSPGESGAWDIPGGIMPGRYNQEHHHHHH

[5] = biological target: T4, BTMD-hSKI-1 (Homo sapiens, UniProt Q14703); type: biochemical
T4 sequence (Q14703 187-997 limits assumed): T1 sequence (Q14703 187-997 limits assumed)

[6] = biological target: T5, 98 kDa shed form of SKI-1 (sSKI-1) (human, UniProt Q14703 187-996); assay: cell-based or functional assay
T5 sequence: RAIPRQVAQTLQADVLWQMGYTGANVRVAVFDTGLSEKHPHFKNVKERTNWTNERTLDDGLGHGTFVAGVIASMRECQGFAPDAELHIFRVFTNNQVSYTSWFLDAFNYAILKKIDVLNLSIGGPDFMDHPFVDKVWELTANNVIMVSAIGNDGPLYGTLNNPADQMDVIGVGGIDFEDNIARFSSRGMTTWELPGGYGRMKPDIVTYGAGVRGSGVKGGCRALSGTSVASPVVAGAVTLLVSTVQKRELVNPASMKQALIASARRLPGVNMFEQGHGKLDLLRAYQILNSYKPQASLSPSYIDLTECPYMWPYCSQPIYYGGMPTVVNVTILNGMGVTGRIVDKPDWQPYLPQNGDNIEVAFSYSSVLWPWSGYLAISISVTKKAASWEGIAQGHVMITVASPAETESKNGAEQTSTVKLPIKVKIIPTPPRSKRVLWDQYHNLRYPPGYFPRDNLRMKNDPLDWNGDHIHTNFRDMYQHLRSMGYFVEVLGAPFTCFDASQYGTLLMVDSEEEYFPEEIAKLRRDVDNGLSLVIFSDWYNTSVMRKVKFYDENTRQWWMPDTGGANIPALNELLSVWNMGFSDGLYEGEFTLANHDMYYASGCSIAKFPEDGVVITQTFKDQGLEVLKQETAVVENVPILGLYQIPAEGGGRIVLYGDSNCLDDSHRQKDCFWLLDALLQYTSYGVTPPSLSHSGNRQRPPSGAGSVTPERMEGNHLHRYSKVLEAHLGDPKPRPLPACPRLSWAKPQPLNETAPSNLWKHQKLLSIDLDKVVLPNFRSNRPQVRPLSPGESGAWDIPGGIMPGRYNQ

[7] = COS-7 cells co-expressing proBDNF and SKI-1

## KAGSRGLTSLADTF [I]
[1]; at pH 5.0
  activity retained: about 30%
[1]; at pH 8.5
  activity retained: ~55%

## α1-antitrypsin Portland [α1-PDX]
[2]
  production of the 14 kDa BDNF: selectively blocks the production of the 14 kDa BDNF
[3]
  level of the 28 kDa BDNF product: neither α1-PIT nor α1-PDX affect the level of the 28 kDa product

## CNc1ccc2oc(C[C@H]3O[C@@]4(CC[C@H]3C)O[C@H]([C@H](C)C(=O)c3ccc[nH]3)[C@H](C)C[C@H]4C)nc2c1C(=O)O [Peptide A23187]
[2]; [7]
  production of the 14 kDa BDNF: abolished
[3]; [7]
  level of the 28 kDa BDNF product: abolished

B1: PS3 (SKI-1 prosegment construct extending to Leu197, hexa-His tag) (other)
chain: KKHLGDRLEKKSFEKAPCPGCSHLTLKVEFSSTVVEYEYIVAFNGYFTAKARNSFISSALKSSEVDNWRIIPRNNPSSDYPSDFEVIQIKEKQKAGLLTLEDHPNIKRVTPQRKVFRSLKYAESDPTVPCNETRWSQKWQSSRPLRRASLSLGSGFWHATGRHSSRRLLRAIPRQVAQTLHHHHHH
notes: Bacterial recombinant (pET24b, E. coli BL21); Any vector-derived residues are not described
[4]
  Ki: 127 nM

B2: PS2 (SKI-1 prosegment construct extending to Ala188, hexa-His tag) (other)
chain: KKHLGDRLEKKSFEKAPCPGCSHLTLKVEFSSTVVEYEYIVAFNGYFTAKARNSFISSALKSSEVDNWRIIPRNNPSSDYPSDFEVIQIKEKQKAGLLTLEDHPNIKRVTPQRKVFRSLKYAESDPTVPCNETRWSQKWQSSRPLRRASLSLGSGFWHATGRHSSRRLLRAHHHHHH
notes: Bacterial recombinant (pET24b, E. coli BL21); The start at aa 18 follows the sense primer and claim 3; Any vector-derived residues are not described
[5]
  inhibitory potency after digestion with carboxypeptidase B to eliminate the His-tag: not affected
[5]; read-out: Ki(app)
  Ki: 97 nM
[4]
  Ki: 97.5 nM

B3: peptide XI, Q-hSKI-1 (134-142): Abz-RSLKYAESD-Y(NO2)-A (peptide)
peptide: [2Abz]RSLKYAESD[Tyr(3-NO2)]A-NH2
modifications: N-terminus assumed
SMILES: CC(C)C[C@H](NC(=O)[C@H](CO)NC(=O)[C@H](CCCNC(=N)N)NC(=O)c1ccccc1N)C(=O)N[C@@H](CCCCN)C(=O)N[C@@H](Cc1ccc(O)cc1)C(=O)N[C@@H](C)C(=O)N[C@@H](CCC(=O)O)C(=O)N[C@@H](CO)C(=O)N[C@@H](CC(=O)O)C(=O)N[C@@H](Cc1ccc(O)c([N+](=O)[O-])c1)C(=O)N[C@@H](C)C(N)=O
[6]
  kinetic parameters relative to peptide IV: ~16 fold

B4: peptide X, Q-hSKI-1 (132-142): Abz-VFRSLKYAESD-Y(NO2)-A (peptide)
peptide: [2Abz]VFRSLKYAESD[Tyr(3-NO2)]A-NH2
modifications: N-terminus assumed
SMILES: CC(C)C[C@H](NC(=O)[C@H](CO)NC(=O)[C@H](CCCNC(=N)N)NC(=O)[C@H](Cc1ccccc1)NC(=O)[C@@H](NC(=O)c1ccccc1N)C(C)C)C(=O)N[C@@H](CCCCN)C(=O)N[C@@H](Cc1ccc(O)cc1)C(=O)N[C@@H](C)C(=O)N[C@@H](CCC(=O)O)C(=O)N[C@@H](CO)C(=O)N[C@@H](CC(=O)O)C(=O)N[C@@H](Cc1ccc(O)c([N+](=O)[O-])c1)C(=O)N[C@@H](C)C(N)=O
[6]
  kinetic parameters relative to peptide IV: ~3 fold

— patent publication US7211424B1, “Mammalian Subtilisin/kexin isozyme SKI-1: a proprotein convertase with a unique cleavage specificity” (Institut de Recherches Cliniques de Montreal, priority 1999, dated 2007)
